Publication PMC2174231 (The Journal of Cell Biology, 1999)

Molecular target: T1, PML wild-type fused to GAL4-DBD (UniProt P29590 1-882)
T1 sequence: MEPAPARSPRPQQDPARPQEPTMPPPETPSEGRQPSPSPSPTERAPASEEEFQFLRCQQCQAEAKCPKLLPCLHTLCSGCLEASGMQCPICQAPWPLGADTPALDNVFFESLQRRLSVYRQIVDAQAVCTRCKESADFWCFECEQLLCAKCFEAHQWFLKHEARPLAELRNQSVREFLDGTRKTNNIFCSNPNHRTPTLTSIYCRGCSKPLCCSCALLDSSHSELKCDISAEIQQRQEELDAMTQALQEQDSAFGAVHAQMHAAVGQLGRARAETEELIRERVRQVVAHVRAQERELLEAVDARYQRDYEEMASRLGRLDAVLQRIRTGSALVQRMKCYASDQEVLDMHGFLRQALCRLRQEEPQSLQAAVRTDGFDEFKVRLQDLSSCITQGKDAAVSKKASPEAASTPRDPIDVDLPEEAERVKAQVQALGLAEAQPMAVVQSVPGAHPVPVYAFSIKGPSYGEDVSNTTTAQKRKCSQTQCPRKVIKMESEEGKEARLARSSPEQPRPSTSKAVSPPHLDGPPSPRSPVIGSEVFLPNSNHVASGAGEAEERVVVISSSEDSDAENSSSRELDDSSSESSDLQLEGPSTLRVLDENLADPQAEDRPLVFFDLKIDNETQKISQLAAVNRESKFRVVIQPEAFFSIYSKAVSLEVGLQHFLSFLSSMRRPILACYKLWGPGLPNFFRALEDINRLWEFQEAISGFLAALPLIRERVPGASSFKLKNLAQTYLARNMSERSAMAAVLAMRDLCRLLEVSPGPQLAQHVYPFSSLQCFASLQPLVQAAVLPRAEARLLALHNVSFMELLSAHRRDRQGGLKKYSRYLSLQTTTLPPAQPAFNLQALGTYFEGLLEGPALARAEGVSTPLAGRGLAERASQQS
Assay: two-hybrid

B1: Daxx amino acids 625-740 fused to NLS-VP16 (domain or fragment)
chain: SGPPCKKSRKEKKQTGSGPLGNSYVERQRSVHEKNGKKICTLPSPPSPLASLAPVADSSTRVDSPSHGLVTSSLCIPSPARLSQTPHSQPPRPGTCKTSVATQCDPEEIIVLSDSD
Question: How did the “fold strength of interaction (β-galactosidase) against full-length Daxx” value turn out when B1 was run?
Answer: ~3 fold

B2: Daxx amino acids 488-740 fused to NLS-VP16 (domain or fragment)
chain: AGKDGDKSPMSSLQISNEKNLEPGKQISRSSGEQQNKGRIVSPSLLSEEPLAPSSIDAESNGEQPEELTLEEESPVSQLFELEIEALPLDTPSSVETDISSSRKQSEEPFTTVLENGAGMVSSTSFNGGVSPHNWGDSGPPCKKSRKEKKQTGSGPLGNSYVERQRSVHEKNGKKICTLPSPPSPLASLAPVADSSTRVDSPSHGLVTSSLCIPSPARLSQTPHSQPPRPGTCKTSVATQCDPEEIIVLSDSD
Question: B2 was tested. Which “fold strength of interaction (β-galactosidase) against full-length Daxx” value did it give?
Answer: ~3 fold

B3: Daxx amino acids 433-740 fused to NLS-VP16 (domain or fragment)
chain: AETDDEDDEESDEEEEEEEEEEEEEATDSEEEEDLEQMQEGQEDDEEEDEEEEAAAGKDGDKSPMSSLQISNEKNLEPGKQISRSSGEQQNKGRIVSPSLLSEEPLAPSSIDAESNGEQPEELTLEEESPVSQLFELEIEALPLDTPSSVETDISSSRKQSEEPFTTVLENGAGMVSSTSFNGGVSPHNWGDSGPPCKKSRKEKKQTGSGPLGNSYVERQRSVHEKNGKKICTLPSPPSPLASLAPVADSSTRVDSPSHGLVTSSLCIPSPARLSQTPHSQPPRPGTCKTSVATQCDPEEIIVLSDSD
Question: B3 was tested. Which “fold weaker interaction (β-galactosidase) against Daxx 488-740” value did it give?
Answer: ~20 fold weaker
